Experimental findings from patent publication US20140154241A1 (CYCLOGENIX, published 2014) are described below.

The assay addresses T1, human serum albumin (HSA) (human, UniProt P02768 25-609).
T1 construct: Coated on ELISA plates or immunotubes; also called HuSA
In words: phage ELISA on coated HSA. (ELISA stands for enzyme-linked immunosorbent assay.)

T1 sequence (P02768 25-609 limits assumed): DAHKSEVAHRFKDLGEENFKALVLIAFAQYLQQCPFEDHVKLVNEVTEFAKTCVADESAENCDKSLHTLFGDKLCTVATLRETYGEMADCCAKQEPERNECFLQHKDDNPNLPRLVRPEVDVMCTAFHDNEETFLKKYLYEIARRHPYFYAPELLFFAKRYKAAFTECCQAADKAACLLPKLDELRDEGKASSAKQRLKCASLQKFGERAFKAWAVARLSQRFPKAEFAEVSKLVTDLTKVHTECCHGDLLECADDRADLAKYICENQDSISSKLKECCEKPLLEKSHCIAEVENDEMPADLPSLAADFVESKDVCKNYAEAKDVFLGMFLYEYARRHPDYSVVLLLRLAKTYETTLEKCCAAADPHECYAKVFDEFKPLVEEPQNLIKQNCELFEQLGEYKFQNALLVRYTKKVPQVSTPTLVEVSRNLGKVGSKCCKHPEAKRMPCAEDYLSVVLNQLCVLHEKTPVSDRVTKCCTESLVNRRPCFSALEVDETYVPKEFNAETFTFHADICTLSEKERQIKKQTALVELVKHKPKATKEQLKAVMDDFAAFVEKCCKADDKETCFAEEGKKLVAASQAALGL

B1: modified igNAR peptide clone B10 (VNAR)
VNAR: RVDQTPRIATKETGESLTINCVLRDTACALDSTNWYRTKLGSTKEQTISIGGRYSETADEGSNPASLTIRDLRVEDSGTYKCKAAITPFDNWYECLGTRAEGAGTVLTVK
Regarding B1, the binding result is given as “binds”.

B2: representative full igNAR clone of SEQ ID NO: 8 (VNAR)
VNAR: RVDQTPRIATKETGESLTINCVLRDTACALDSTNWYRTKLGSTKEQTISIGGRYSETVDEGSNSASLTIRDLRVEDSGTYKCKAAITPFDNWYECLGTRAEGAGTVLTVK
B2: the binding result is “binds”.
